T1: PUF4 RNA-binding domain (Saccharomyces cerevisiae, UniProt P25339 537-888)
T1 sequence: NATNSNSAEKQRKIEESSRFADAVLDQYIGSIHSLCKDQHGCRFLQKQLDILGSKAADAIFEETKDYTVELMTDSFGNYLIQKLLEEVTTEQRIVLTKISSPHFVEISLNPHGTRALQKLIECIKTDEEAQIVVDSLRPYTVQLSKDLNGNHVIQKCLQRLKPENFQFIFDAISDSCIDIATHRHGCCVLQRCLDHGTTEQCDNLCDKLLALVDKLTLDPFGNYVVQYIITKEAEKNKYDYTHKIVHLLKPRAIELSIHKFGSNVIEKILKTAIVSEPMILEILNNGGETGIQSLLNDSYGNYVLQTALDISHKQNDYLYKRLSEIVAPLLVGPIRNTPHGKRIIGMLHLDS

B1: Ic_S1_P5E.1_K5.1_C5.1_H5.1_A5.1_[T5A]_[T6C]_F5.1_[T8C]_[T9C]_[A10T]_T5.1 (ssRNA)
RNA: UCUCUUUGUAACACCUUCUCUU
B2: Ic_S1_P5E.1_K5.1_C5.1_H5.1_A5.1_[T5C]_[T6G]_[A7G]_F5.1_[T8C]_[A10G]_T5.1 (ssRNA)
RNA: UCUCUUUGUACGGCUGUCUCUU
B3: Ic_S1_P5E.1_K5.1_C5.1_H5.1_A5.1_[T5A]_[T6G]_[A7C]_F5.1_[T8A]_[T9C]_[A10T]_T5.1 (ssRNA)
RNA: UCUCUUUGUAAGCACUUCUCUU
B4: Ic_S1_P5E.1_K5.1_C5.1_H5.1_A5.1_[T6G]_[A7T]_F5.1_[T8G]_[T9C]_[A10C]_T5.1 (ssRNA)
RNA: UCUCUUUGUAUGUGCCUCUCUU
B5: Ic_S1_P5E.1_K5.1_C5.1_H5.1_A5.1_[T6A]_F5.1_[T8C]_[T9G]_[A10T]_T5.1 (ssRNA)
RNA: UCUCUUUGUAUAACGUUCUCUU
B6: Ic_S1_P5E.1_K5.1_C5.1_H5.1_A5.1_[T6A]_[A7G]_F5.1_[T8C]_[A10C]_T5.1 (ssRNA)
RNA: UCUCUUUGUAUAGCUCUCUCUU
B7: Ic_S1_P5E.1_K5.1_C5.1_H5.1_A5.1_[T5G]_[T6C]_[A7T]_F5.1_[T9G]_T5.1 (ssRNA)
RNA: UCUCUUUGUAGCUUGAUCUCUU
B8: Ic_S1_P5E.1_K5.1_C5.1_H5.1_A5.1_[T6C]_[A7T]_F5.1_[T9G]_T5.1 (ssRNA)
RNA: UCUCUUUGUAUCUUGAUCUCUU
B9: Ic_S1_P5E.1_K5.1_C5.1_H5.1_A5.1_[T6A]_[A7C]_F5.1_[T8G]_[T9A]_[A10C]_T5.1 (ssRNA)
RNA: UCUCUUUGUAUACGACUCUCUU
B10: Ic_S1_P5E.1_K5.1_C5.1_H5.1_A5.1_[T5A]_F5.1_[T8C]_[T9C]_[A10T]_T5.1 (ssRNA)
RNA: UCUCUUUGUAAUACCUUCUCUU
B11: Ic_S1_P5E.1_K5.1_C5.1_H5.1_A5.1_[T5C]_[T6C]_[A7C]_F5.1_[T8C]_[A10C]_T5.1 (ssRNA)
RNA: UCUCUUUGUACCCCUCUCUCUU
B12: Ic_S1_P5E.1_K5.1_C5.1_H5.1_A5.1_[T5C]_[T6A]_[A7T]_F5.1_[T8C]_[T9C]_T5.1 (ssRNA)
RNA: UCUCUUUGUACAUCCAUCUCUU
B13: Ic_S1_P5E.1_K5.1_C5.1_H5.1_A5.1_[T6C]_F5.1_[T9G]_[A10C]_T5.1 (ssRNA)
RNA: UCUCUUUGUAUCAUGCUCUCUU
B14: Ic_S1_P5E.1_K5.1_C5.1_H5.1_A5.1_[T5A]_[T6C]_[A7T]_F5.1_[T9G]_[A10T]_T5.1 (ssRNA)
RNA: UCUCUUUGUAACUUGUUCUCUU
B15: Ic_S1_P5E.1_K5.1_C5.1_H5.1_A5.1_[T5C]_[T6C]_F5.1_[T8A]_[A10C]_T5.1 (ssRNA)
RNA: UCUCUUUGUACCAAUCUCUCUU
B16: Ic_S1_P5E.1_K5.1_C5.1_H5.1_A5.1_[T5A]_[T6G]_[A7T]_F5.1_[T9A]_T5.1 (ssRNA)
RNA: UCUCUUUGUAAGUUAAUCUCUU
B17: Ic_S1_P5E.1_K5.1_C5.1_H5.1_A5.1_[T5A]_[A7C]_F5.1_[T8A]_[T9G]_[A10C]_T5.1 (ssRNA)
RNA: UCUCUUUGUAAUCAGCUCUCUU
B18: Ic_S1_P5E.1_K5.1_C5.1_H5.1_A5.1_[T5C]_[T6A]_[A7C]_F5.1_[T8G]_[T9C]_[A10C]_T5.1 (ssRNA)
RNA: UCUCUUUGUACACGCCUCUCUU
B19: Ic_S1_P5E.1_K5.1_C5.1_H5.1_A5.1_[T6A]_[A7C]_F5.1_[T8G]_[A10T]_T5.1 (ssRNA)
RNA: UCUCUUUGUAUACGUUUCUCUU
B20: Ia_S1_P4E.1_K4.1_C4.1_H4.1_A4.1_F4.1_[T8A]_T4.1 (ssRNA)
RNA: UCUCUUUGUAUAUAAUCUCUU
B21: Ic_S1_P5E.1_K5.1_C5.1_H5.1_A5.1_[T5A]_[A7T]_F5.1_[T8C]_[T9C]_[A10T]_T5.1 (ssRNA)
RNA: UCUCUUUGUAAUUCCUUCUCUU
B22: Ic_S1_P5E.1_K5.1_C5.1_H5.1_A5.1_[T5C]_F5.1_[T8C]_[T9C]_[A10C]_T5.1 (ssRNA)
RNA: UCUCUUUGUACUACCCUCUCUU
B23: Ic_S1_P5E.1_K5.1_C5.1_H5.1_A5.1_[T5C]_[T6C]_F5.1_[T9C]_[A10C]_T5.1 (ssRNA)
RNA: UCUCUUUGUACCAUCCUCUCUU
B24: Ic_S1_P5E.1_K5.1_C5.1_H5.1_A5.1_[T5A]_[T6A]_[A7G]_F5.1_[T8C]_[A10C]_T5.1 (ssRNA)
RNA: UCUCUUUGUAAAGCUCUCUCUU
B25: Ib_S1_P3E.1_K3.1_C3.1_H3.1_[G2T]_[A4G]_A3.1_F3.1_T3.1 (ssRNA)
RNA: UCUCUUUUUGUAUAUCUCUU
B26: Ic_S1_P5E.1_K5.1_C5.1_H5.1_A5.1_[T6G]_[A7T]_F5.1_[T8C]_[T9C]_[A10C]_T5.1 (ssRNA)
RNA: UCUCUUUGUAUGUCCCUCUCUU
B27: Ib_S1_P3E.1_K3.1_C3.1_H3.1_[G2T]_[T3A]_A3.1_F3.1_T3.1 (ssRNA)
RNA: UCUCUUUUAAUAUAUCUCUU
B28: Ic_S1_P5E.1_K5.1_C5.1_H5.1_A5.1_[T6A]_F5.1_[T9G]_[A10G]_T5.1 (ssRNA)
RNA: UCUCUUUGUAUAAUGGUCUCUU
B29: Ib_S1_P3E.1_K3.1_C3.1_H3.1_[G2C]_[A4T]_A3.1_F3.1_T3.1 (ssRNA)
RNA: UCUCUUUCUUUAUAUCUCUU
B30: Ic_S1_P5E.1_K5.1_C5.1_H5.1_A5.1_[T5G]_[T6C]_F5.1_[T9A]_[A10C]_T5.1 (ssRNA)
RNA: UCUCUUUGUAGCAUACUCUCUU
B31: Ic_S1_P5E.1_K5.1_C5.1_H5.1_A5.1_[T5C]_[T6A]_[A7T]_F5.1_[T9A]_[A10C]_T5.1 (ssRNA)
RNA: UCUCUUUGUACAUUACUCUCUU
B32: Ic_S1_P5E.1_K5.1_C5.1_H5.1_A5.1_[T5C]_[T6A]_[A7T]_F5.1_[T8A]_[T9C]_[A10G]_T5.1 (ssRNA)
RNA: UCUCUUUGUACAUACGUCUCUU

Molecular target: T1, PUF4 RNA-binding domain
Experiment: Mg; RNA-MaP; 20 mM Na-HEPES pH 7.4, 30 mM KOAc, 0.75 mM MgCl2, 0.1% Tween-20, 5% glycerol, 0.1 mg/mL BSA, 2 mM DTT; 25 C; 0.0125-409.6 nM protein
Details: tags: N-His6-TEV cleaved; C-SNAP kept, Cy3B-labelled; label: tethered on chip by stalled RNA polymerase

Binder	Kd [nM]
B1	621
B2	2200
B3	> 2300
B4	838
B5	34.4
B6	111
B7	651
B8	72.1
B9	49
B10	690
B11	1240
B12	29.4
B13	11.3
B14	49.4
B15	119
B16	66.4

Binder	Kd [nM]
B17	1300
B18	394
B19	43.4
B20	4.12
B21	448
B22	656
B23	12.5
B24	1270
B25	25.1
B26	125
B27	> 2300
B28	8.53
B29	> 2300
B30	8.64
B31	0.694
B32	11

Reference: article PMC9352680, “A comprehensive thermodynamic model for RNA binding by the Saccharomyces cerevisiae Pumilio protein PUF4”
